Assay results as given in the nanobody polyreactivity screen of Harvey et al. (2022).

Test: yeast display, Sf9 membrane polyspecificity reagent, FACS + sequencing; frameworks hold sequencing errors
Outline: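 Polyreactivity labels are assigned by the sorting gate from which each nanobody was recovered. The gates were low and high (top ~1%), set on anti-HA fluorescence for expression and streptavidin fluorescence for reagent binding. Before sorting, galactose-induced (36–48 hours) yeast display cells were stained for 1 hour at 4 °C with 10% biotinylated, detergent-solubilized Sf9 membrane reagent.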

Row | Sequence | polyreactivity (PSR sort gate)
1 | QVQLVESGGGLVQAGGSLRLSCAASGFTYYAMGWYRQAPGKERELVAAITRGGSTYYADSVKGRFTISRDNAKNTVYLQMNSLKPEDTAVYYCAVLQRAARLGYNYWGQGTQVTVSS | high polyreactivity
2 | QVQLVESGGGLVQAGGSLRLSCAASGSTFKPNAMGSYRQAPGKEREFVASITWSAGSTYYADSVKGRFTISRDNAKNTVYLQMNSLKPEDTAVYYCAARLRWAGISRYGYWGQGTQVTVSS | high polyreactivity
3 | QVQLVESGGGLVQAGGSLRLSCAASGFILLQYVMGWYRQAPGKERELVAAITSGGSTYYADSVKGRFTISRDNAKYTVYLQMNSLKPEDTAVYYCSTDVADNTFYALYGYDYWGQGTQVTVSS | low polyreactivity
4 | QVQLVESGGGLVQAGGSLRLTCAASGRTFKSYTMGWYRQAPGKEREFVAAISSRGGNTYYADSVKGRFTISRDNAKNTVYLQMNSLKPEDTAVYYCAAESSYWSFPTYDYWGQGTQVTVSS | high polyreactivity
5 | QVQLVESGGGLVQAGGSLRLSCAASGYTLTINVMGWYRQAPGKERELVAAITSSGASTNYADSVKGRFTISRDNAKNTVYLQMNSLKPEDTAVYYCNVVNEHQSDFVVPFDYNHWGQGTQVTVSS | low polyreactivity
6 | QVQLVESGGCLVQAGGSLRLSSAASGFIIPGNPMCWYRQAPAKERDLVAAITSGGSTKYADSVKGRITISRDNAKNTDYLQMNSLKPEDTAVYYCAARGFPPGDEWHPYDYWGQGTQVTVSS | low polyreactivity
7 | QVQLVESGGGLVQAGGSLRLSSAASGFVCNAMGWYRQAPGKERDLVAAIDSSGGNTYYADSVKGRFTISRDNAKNTVYLQMNSMKPEDTAVYYCAARYVERHTDYYYWGQGTQVTVSS | low polyreactivity
8 | QVQLVESGGGLVQAGGSLRLSSAASGRIFSDYDMGWYRQAHGKERELVAAITSGGITNYADSVKGRFTISRDNAKNTVYLQMNSLKPEDTAVYYCATGRRRYYFREYYYWGQGTQVTVSS | high polyreactivity
9 | QVQLVESGGGLVQAGGSLRLSCAASGRTFYSYAMGWYIQAPGKERELVATINRGSGTNYADSVKGRFTISRDNAKNSVYLQMNSLKPEDSAVYSCAVDRRVLWYHMDYWGQGTKVTVSS | high polyreactivity
10 | QVQLVESGGGLVQAGGSLRLSCAASGSTFPRYAMGWYRQAPGKERELVATITSGGSTYYADSVKGCFTISRDNAKNTFYLQMNSLKPEDTAVYYCAAGYRWTYTSGTYIRYNYWGQVTQVTVSS | high polyreactivity
11 | QVQLVESGGGLVQAGGSLRLSCAASGSIFQRYAMGWYRQAPGKERELVAAISGSGGRTYYADSVKGRFTISRDNAKNTVYLQMNSLKPEDTAVYYCAKDFRLRGGYDYWGQGTQVTVSS | high polyreactivity
12 | QVQLVESGGGLVQAGGSLRLSCAASGSIFHGYGMGWYRPAPGKERELVASITWIGGDTYYADSVKGRFTISRDNAKNTVYLQMNSLKPEDTAVYYCNAEWVVTYIYDYWGQGTQVTVSS | low polyreactivity
13 | QVQLVESGGGLVQAGGSLLLSCASSGFIFTKYTMGWYRLAPGKERELVAAITGRGTSTYADSVKGRFSMSRDNAKNTVYLQMNSLIPEDTAVYYCAAVGWFADFLFSDINGYYWGQGTQVTVSA | low polyreactivity
14 | QVQLVESGGGLVQAGGSLRLSCAASGRIYSNYAIGWYRQAPGKERELVAAITSGGRTNYADSVKGRFTISRDNAKNTVYLQMNSLKRDDTAVYYCDAETTPYQPDGFDEYYYWGQGTQVTVSS | high polyreactivity
15 | QVQLVESGGGLVQAGGSLRLISAASGSTIIRNAMGWYRQAPGKERELVAAISTSGGRTHYADSVKGRFTISRDNAKTTVYLQMNSLKPEDTAVYDCAASNGYQAVTYDYWGQGTQVTVSS | high polyreactivity
16 | QVQLVESGGGLVQAGGSLRLSCAASGSIFSSYAMGWYRQAPGKERELVAAITTRGDSTRYADSVKGRFTISRDNAKNTVYLQMNSLKPEDTAVYYCAARRRGASKYGYWGQGTQVTVSS | high polyreactivity
17 | QVQLVESGGGLVQAGGSLRLSCAASGFTFYYYTMGWYRQAPGKERELVAGISGTGGSTYYADSVKGRFTISRDNAKNTVYLQMNSLKPEDTAVYYCAAGPWYWGQGTQVTVSS | low polyreactivity
18 | QVQLVESGVGLVQAGGSLRLSCAASGLIFYRYAMGWNRQAPGKERELVAAISWSGGTTYYADSVKGRFTISRDNAKNTVYLQMNSLKPEDTAVYYCAATRLRTEYYWGQGTQVTVSS | high polyreactivity
19 | QVQLVESGGGLVQAGGSLRLSCAASGITFSQYAMGWYRPAPGKERELVAAISWSGVRTYYADSVKGRFTISRDNSKNTVYLQMNSLKPEDTAVYYCAAVPVYYGYDYWGQGTQVTVSS | high polyreactivity
20 | QVQLVESGGGLVQAGGSLRLSCAASGFIFWFNDMGWYRQAPGKERELVATISWSDTSTYYADSVKGRFTISRDNAKNTVYLQMTSLKPEDTAVYYCATDGRETCLPEYYWGQGTQVTVSS | low polyreactivity
21 | QVQLVVSGGGLVQAGGSLRLSCAASGRTFSIYAMGWYRQAPWKERELVAAISWSGGRTYYADSVKGRFTISRDNAKNTVYLLMNSLKPEDTAVYYCNKDWIYRGYDYWGQGTQVTVSS | high polyreactivity
22 | QVQLVESGGGLVQAGVSLRLSCAASGFISDWYAMGWYRQAPGNERELVATLDWIGGSTYADSVKGRFTISRDNAKNTVYFQMNSLKPEDTAVYYCAADSFFIAWYGAHYAYDDWGQGTQVTVSS | low polyreactivity

Row | Sequence | polyreactivity (PSR sort gate)
23 | QVQLVESGGGLVQAGGILRLSCAASGRNFVHYAMGWYRQAPGKERELVAAISHSGGRTYYADSVKGRFTMSRDYAQNTVYLQMNSLKPEDTAVYYCNVRGSPAGTGLLDYWGQGTQVTVSS | high polyreactivity
24 | QVQLVESGGGLVQAGGSLRLSCAASGSIFDFYAMGWYRQAPGKERESVAAISWSGGSTYADSVKGRFTISRDNAKNTVYLQMNSLKPEDTAVYYCAARWGTYWGVLGGDPDIDYDYWGQGTQVTVSS | low polyreactivity
25 | QVQLVESGGGLVQAGGRLRLSCAASGSTITYYTMGWYRQAPGKERELVAAISGSGGRTYYADSVKGRFTISRDNAKNTVYLQMNSLKPEDTAVYYCAAVYQLSRYDYWGQGTQVTVSS | high polyreactivity
26 | QVQLVESGGCLVQAGGSLRISCAASGRIFSRNAMGWYRQAPGKEREWVAAITRSSGTTYYADSVKGRFTISRDNAKNTVYLQMNSLKPEDTAVYYCAAGHTYGGYPRPSDYWGQGTQVTVSS | low polyreactivity
27 | QVQLVESGGGLVQAGGSLRLSCAASGLSLGVYTLGWYRQAPGKEREFVASINYGGGSTYYADSVKGRFTISRDNAKNTVYLQMNSLKPEDTAVYYCNARSRWGGTRLYSYDYWGQGTQVTVSS | low polyreactivity
28 | QVQLVESGGGLVQAGGSLRLSCAASGFTFYLYTMGWYRQAPGKERELVASLTGSGGSTYYADSVKGRFTISRDNAKNTVYLQMHSLKPEDTAVYYCNARYYVYSATVDRYYHFYYWGQGTQVTVSS | high polyreactivity
29 | QVQLVESGGGLVQAGGSLRLSCAASGGIFRYSAMGWYRQAPGKERELVATDGDTYYADSVKGRFTISRDNAKNTVYLQLNSLKPEDTAVYYCAAEPVRYYAMEYWGQGTQVTVSS | low polyreactivity
30 | QVQLVESGGGLVQAGGSLRLSCAASGFTFVAYAMGWYRQAPGKERELVAAITWSGSRTYYADSVKGRFTISRDNAKNTVYLQMNSLKPEDTAVYYCAARKTEGHYGYWGQGTQVTVSS | high polyreactivity
31 | QVQLVESGGGLVQAGGSLRLSCAASGSTCWSNAMGWYRQAPGKERELVAGISWSDGSTYADSVKGRFTISRDNAKNTVYLQMNSLKPEDTAVYYCAAADNYRGYTYEYDYWGQGTQVTVSS | low polyreactivity
32 | QVQLVESGGGLVQAGGSLRLSCAASGSTFFYYAMGWYRQAPGKERELVAAISRNGGSTYYADSVKGRFTISRDNAKNTVYLQMNSLKPEDTAVYYCNAYNLAGRYFDYWGQGTQVTVSS | high polyreactivity
33 | QVQLVESGGGLVQAGGSLRLSCAASGFIFSVYAMGWYRQAPGKERELVAVISTSGGRTYYADSVKGRFTISRDNAKNTVYLQMNSLKPEDTAVYYCAADGFQYTLGNYYWGQGTQVTVSS | high polyreactivity
34 | PVQLVESGGGLVQAGGSLSLICAASGRIFYMYAMRCYRPAPAKERELVAAITWSGGSTTYADSVKGRFTISRDNAKNTVYLQMNSLKPEDTSVYYCNAEGWIFPSFSPMDYWGQGTQVTVSS | low polyreactivity
35 | QVQLVESGGGLVQAGGSLRLSCAASGGIFHHYAMGWSRPAPGKERELVAGISWRGTSTYYADSVKGRFTISRDNAKNTVYLQMNSLKPEDTAVYYCARVYPYSVGYNSGHPASYDYWGQGTQVTVSS | high polyreactivity
36 | QVQLVESGGGLVQAGGSLRLSCAASGFIFEWYTMGWYRQAPGKERELVARISSDGSTTYADSVKGRFTISRDNAKNTVYLQMNSLNPEDTAVYYCAADVTYPGLIYIYDYWGQGTQVTVSS | low polyreactivity
37 | QVLLQESGGGLVQAGGSLRLCCAASGYISGDQIMGWYRQAPGKDREFVAGIGNGTNTNYADSVKGRFTTSRDNAKNTVYLQMNSLNPEDTAVYYCPADPSDGSTLAYWGQGTQVTVSS | high polyreactivity
38 | QVQLVESGGGLVQAGGSLLLSCAASGFTFSGYVMGWYRQAPGKERELVAAISNSGGRTYADSVKGRFTISRDNAKNTVYLQMNSLKPEDTAVYYCAKKPGGFSQASRVDYDYWGQGTQVTVSS | low polyreactivity
39 | QDQLVESGGGLVQAGGSLSLSCAASGRTFAVYAMGWYRQAPGKEMELVAAITQSGGSTYYADSVKGRFTISRDNAKNTVYLQINSMKPEDTAVYYCAKTGRFPYTAGQSFGYDYWGQGTQVTVSS | low polyreactivity
40 | QVQLVESGGGLVQAGGSLRLSCAASGRTFKHYAMGWYRQAPGKERELVAAITSGGSTYYADSVKGRFTISRDNAKNTVYLLMNSLIPEDTAVYYCNKESYFDTYRRYDSWGHGTQVTVSS | low polyreactivity
41 | QVQLVESGGGLVQAGGSLRLSCAASGSIFWYNAMGWYRQAPGKERELVAAINWSGGSTFYADSVKGRFTISRDNAKNTVFLQMNSLKPEDTAVYYCAADDWYTGYDYWGHGTQVTVSS | high polyreactivity
42 | QVQLVESGGGLVQAGGSLRLSCAASGRIFSSNVMGWYRQAPGKERELVAAITVTGGSTYYAYSVKGRFTISRDNAKYTVYLLMNSLNPEDTAVYFCAARVKGRFPYDYWGQGSQVTVSS | low polyreactivity
43 | QVQLVESGGGLVQAGGRLRITCAASGRTFKTYAMGWYRPAPGKERELVAAISRRGGSTYFADSVKGRFTISRDNAKNTVYLQMNSLKPEDTAVYYCASGNSVGLGWGQGTQVTLSS | high polyreactivity
